Experimental findings from publication doi:10.1101/2021.09.05.459021 (bioRxiv, 2021) are described below.

One series deals with EGFP fusion of KCNH1 (UniProt O95259). Kind of series: single-molecule subunit counting.
Series [1] has as its target mTTYH3 ECD1-T4L-ECD2 (mouse | bacteriophage T4) (UniProt Q6P5F7). Nature of the series: cross-linking.
The series “SEC” deals with the molecule itself. Nature of the series: SEC.
Series [2] deals with the molecule itself. Kind of series: single-molecule subunit counting.
The series “native gel or EMSA” concerns the molecule itself. Nature of the series: native gel or EMSA. Background: Mobility shift assays separate free from complexed probe on a gel.

Values joined by “and” are separate entries in the source; they are usually repeats but may differ in a detail not shown here. Equal values may be shown once.

For the molecule “EGFP fusion of KCNH1 (from UniProt O95259 1-989) (natural protein)”, in the series with EGFP fusion of KCNH1, the stoichiometry N – broadly, the number of molecules, sites or subunits per partner or assembly – was determined as 4.
In series [1], “mTTYH3 ECD1-T4L-ECD2 (from UniProt Q6P5F7 107-209; Q6P5F7 260-386) (domain or fragment)” returned a stoichiometry N of 4.

B1: mTTYH3-EGFP (C-terminal EGFP fusion of mouse TTYH3), expressed in HEK 293 cells (natural protein, UniProt Q6P5F7 1-524, looked up)
chain: MAGVSYAAPWWVSLLHRLPHFDLRWEATSSQFRPEDADYQQALLLLGATALACLALDLLFLLFYSFWLCCRRRKTDEHLDADCCCTAWCVIITTLVCSAGIAVGFYGNGETSDGIHRATYSLRHANRTVAGVQDRVWDTAAALNRTAEPNLQSLERQLAGRQEPLRAVQRLQTLLGTLLGYTAAIPFWRNPGVSLEVLAEQVDLYDWYRWLGYLGLLLLDVIICLLVLVGLIRSSKGILVGVCLLGVLALVISWGALGLELAVSVGSSDFCVDPDTFVTKMVEEHSVLSGDILQYYLACSPRATNPFQQKLSGSHKALVEMQDVVAELLRNVPREHPATKDPLLRVQEVLNGTEVNLQHLTALVDCRSLHLDYVQALTGFCYDGVEGLIYLALFSFVTALMFSSIVCSIPHTWQQKRGPDDDGEEETAPGPRQAHDSLYRVHMPSLYSCGSSYGSEASIPAAAHTVSNAPVTEYMSQNANFQNPRCENTPLIGRESPPPSYTSSMRAKYLATSQPRPDSSGSGH
For the molecule B1, in “SEC”, the “ratio of tetramers to dimers” value was roughly 1.5; the “stoichiometry N” value was 4 and 2.

B2: mTTYH3-EGFP (C-terminal EGFP fusion of mouse TTYH3), expressed in Xenopus oocytes (natural protein, UniProt Q6P5F7 1-524, looked up)
chain: B1 chain
As for B2, the “stoichiometry N” value in series [2] is 4.

B3: FLAG-tagged mouse TTYH3 (mTTYH3) (natural protein, UniProt Q6P5F7 1-524, looked up)
chain: B1 chain
Take B3: the “stoichiometry N” value in the series “native gel or EMSA” is 2 and 4.

B4: mTTYH1-EGFP (C-terminal EGFP fusion of mouse TTYH1), expressed in HEK 293 cells (natural protein, UniProt Q9D3A9 1-450, looked up)
chain: MGAPPGYRPSAWVHLLHQLPRADFQLRPVPSGFAPRDQEYQQALLLVAALAGLGLGLSLIFIAVYLIRFCCCRPPEPHGAKSPPPGGGCVTWSCIAALLVGCAGIGIGFYGNSETSDGVSQLSSALLHANHTLSTIDDVVLETVERLGEAVKTELTTLEEVLSVRMELVAATRGARRQAEAAAQYLQGLAFWQGVSLSPVQVAEDVTFVEEYRWLAYVLLLLLVLLVCLFTLLGLAKQSKWLVVVMTAMSLLVLVLSWGSMGLEAATAVGLSDFCSNPDTYVLNLTQEETGLSSDILSYYFLCNQAVSNPFQQRLTLSQRALASIHSQLQGLEREAIPQFSAAQKPLLSLEETLNVTERSFHQLVALLHCRSLHKDYGSALRGLCEDALEGLLFLMLFSLLSAGALATTLCSLPRAWALFPPSDDYDDTDDDDPFNPQESKRFVQWQSSI
Take B4: the “stoichiometry N” value in the series “SEC” is 4 and 2.

B5: mTTYH1-EGFP (C-terminal EGFP fusion of mouse TTYH1), expressed in Xenopus oocytes (natural protein, UniProt Q9D3A9 1-450, looked up)
chain: B4 chain
In the case of B5, the “stoichiometry N” value in series [2] was 4.

B6: FLAG-tagged mouse TTYH1 (mTTYH1) (natural protein, UniProt Q9D3A9 1-450, looked up)
chain: B4 chain
For the molecule B6, in “native gel or EMSA”, the “stoichiometry N” value was 2 and 4.
